Patent US20260258125A1 (NONA BIOSCIENCES SUZHOU, published 2026)

T1: recombinant human CEACAM6 Fc-tag protein (human, UniProt P40199 35-320, limits assumed)
T1 construct: also called huCEACAM6 (Octet); not shown: Fc tag
T1 sequence (looked up): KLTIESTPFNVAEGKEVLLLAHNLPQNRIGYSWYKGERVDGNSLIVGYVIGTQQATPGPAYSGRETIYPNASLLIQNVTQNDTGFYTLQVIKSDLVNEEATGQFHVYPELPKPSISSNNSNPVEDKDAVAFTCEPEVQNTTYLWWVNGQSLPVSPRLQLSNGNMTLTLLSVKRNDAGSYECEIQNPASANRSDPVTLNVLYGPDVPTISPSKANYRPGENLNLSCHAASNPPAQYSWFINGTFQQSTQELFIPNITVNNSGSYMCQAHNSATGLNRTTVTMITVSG

T2: human CEACAM6 on 293T cells (293T-huCEACAM6 cells) (human, UniProt P40199 35-320)
T2 construct: whole, on cells
T2 sequence (looked up): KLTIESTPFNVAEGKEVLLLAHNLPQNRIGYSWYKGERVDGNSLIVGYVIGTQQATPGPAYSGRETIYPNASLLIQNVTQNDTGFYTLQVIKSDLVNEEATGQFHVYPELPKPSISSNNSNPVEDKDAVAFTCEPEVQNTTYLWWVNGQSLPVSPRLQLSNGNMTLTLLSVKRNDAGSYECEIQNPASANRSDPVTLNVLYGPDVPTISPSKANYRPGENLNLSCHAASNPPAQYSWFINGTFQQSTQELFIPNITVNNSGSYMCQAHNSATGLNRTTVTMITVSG

T3: human CEACAM8 protein (human, UniProt P31997 35-320)
T3 construct: Bought protein; also called huCEACAM8
T3 sequence (looked up): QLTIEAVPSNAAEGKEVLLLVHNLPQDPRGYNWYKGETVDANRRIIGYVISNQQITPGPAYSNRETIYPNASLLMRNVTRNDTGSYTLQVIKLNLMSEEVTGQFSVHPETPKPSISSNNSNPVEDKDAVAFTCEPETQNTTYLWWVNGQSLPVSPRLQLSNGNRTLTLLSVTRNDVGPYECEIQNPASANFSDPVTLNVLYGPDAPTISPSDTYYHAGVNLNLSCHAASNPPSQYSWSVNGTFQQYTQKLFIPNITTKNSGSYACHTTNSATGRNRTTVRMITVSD

T4: human CEACAM6 protein (human, UniProt P40199 35-320)
T4 construct: also called huCEACAM6
T4 sequence (looked up): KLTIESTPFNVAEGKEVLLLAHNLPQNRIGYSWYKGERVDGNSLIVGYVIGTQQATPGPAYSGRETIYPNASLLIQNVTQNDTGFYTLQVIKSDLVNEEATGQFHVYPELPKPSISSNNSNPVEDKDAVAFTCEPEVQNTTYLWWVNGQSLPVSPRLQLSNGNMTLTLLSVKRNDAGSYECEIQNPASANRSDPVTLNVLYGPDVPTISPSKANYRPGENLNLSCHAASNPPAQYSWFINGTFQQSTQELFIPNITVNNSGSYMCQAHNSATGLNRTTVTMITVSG

T5: human CEACAM1 protein (human, UniProt P13688 35-428)
T5 construct: also called huCEACAM1
T5 sequence (looked up): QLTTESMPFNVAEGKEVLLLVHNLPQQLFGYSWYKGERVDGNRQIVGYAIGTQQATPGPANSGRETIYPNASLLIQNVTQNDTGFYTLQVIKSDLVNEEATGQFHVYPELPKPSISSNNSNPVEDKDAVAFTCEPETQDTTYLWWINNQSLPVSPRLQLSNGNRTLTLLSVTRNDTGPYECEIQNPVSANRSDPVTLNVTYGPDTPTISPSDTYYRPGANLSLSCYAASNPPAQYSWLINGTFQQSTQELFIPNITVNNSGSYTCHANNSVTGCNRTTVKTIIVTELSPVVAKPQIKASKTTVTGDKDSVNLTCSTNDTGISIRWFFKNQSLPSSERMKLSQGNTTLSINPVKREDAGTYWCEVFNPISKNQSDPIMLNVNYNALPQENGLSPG

T6: human CEACAM3 protein (human, UniProt P40198 35-155)
T6 construct: Bought protein; also called huCEACAM3
T6 sequence (looked up): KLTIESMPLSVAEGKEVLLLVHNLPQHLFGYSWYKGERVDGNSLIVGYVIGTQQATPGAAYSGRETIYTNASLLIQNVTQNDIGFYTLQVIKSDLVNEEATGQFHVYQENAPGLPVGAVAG

T7: human CEACAM5 protein (human, UniProt P06731 35-685)
T7 construct: also called huCEACAM5
T7 sequence (looked up): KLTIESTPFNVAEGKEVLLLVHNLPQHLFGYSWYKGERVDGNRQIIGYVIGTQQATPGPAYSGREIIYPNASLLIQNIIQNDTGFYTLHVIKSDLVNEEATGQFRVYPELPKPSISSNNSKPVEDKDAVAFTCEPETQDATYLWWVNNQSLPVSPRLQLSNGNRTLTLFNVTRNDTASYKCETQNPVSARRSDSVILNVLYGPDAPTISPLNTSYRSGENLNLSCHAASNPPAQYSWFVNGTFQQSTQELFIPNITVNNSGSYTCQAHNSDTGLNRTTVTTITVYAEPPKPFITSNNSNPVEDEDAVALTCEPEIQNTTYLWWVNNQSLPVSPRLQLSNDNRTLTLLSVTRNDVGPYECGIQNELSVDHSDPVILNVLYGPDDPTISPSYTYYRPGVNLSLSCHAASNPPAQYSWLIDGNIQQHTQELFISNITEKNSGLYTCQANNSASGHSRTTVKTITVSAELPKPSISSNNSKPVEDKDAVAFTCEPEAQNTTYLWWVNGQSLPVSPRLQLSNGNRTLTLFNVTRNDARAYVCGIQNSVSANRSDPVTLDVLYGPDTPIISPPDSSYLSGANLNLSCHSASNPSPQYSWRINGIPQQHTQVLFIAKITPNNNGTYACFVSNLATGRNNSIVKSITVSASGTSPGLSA


Key:
[1] = target: T1, recombinant human CEACAM6 Fc-tag protein; assay: Octet (BLI), antibody on AHC sensor, antigen in solution
Experimental: Binding kinetics of recombinant anti-CEACAM5/6 antibodies to CEACAM5 and CEACAM6 were analyzed by Octet. In Octet analysis, recombinant human CEACAM5 Fc-tag protein (#Uniprot P06731) or CEACAM6 Fc-tag protein (Uniprot P40199) was serially diluted with 1×kinetic buffer (Fortebio). Anti-CEACAM5/6 dual-binding antibodies were diluted to 5 μg/mL. Then diluted antibodies, antigen and regeneration buffer (10 mM glycine pH 1.75) were added to 96-well plates (Greiner). Rate constants for association and dissociation were measured using AHC sensor (Fortebio). The sensor surface was regenerated after each binding experiment with regeneration buffer. The traces were processed using ForteBio Data Analysis Software (version 8.0, Pall ForteBio, CA, USA).

[2] = target: T2, human CEACAM6 on 293T cells …; assay: flow cytometry on 293T-huCEACAM6 cells
Experimental: (§1) Binding of recombinant anti-CEACAM5/6 dual-binding antibodies against human or cynomolgus CEACAM5 or CEACAM6 stable cells were detected by flow cytometry. […] Anti-CEACAM5/6 dual-binding antibodies were incubated with the stable cell lines. Anti-CEACAM5/6 dual-binding antibodies were serially diluted in staining buffer (PBS containing 2% FBS). 50 μL of diluted antibody solution was added to 50 μL of cell suspension containing 1-2×10⁵ cells and incubated at 4° C. for 1 hour. […] After 1-hour incubation at 4° C., cells were washed twice and run on a flow cytometer. […] The results were shown in FIGS. 8-10 and Tables 6 below.

[3] = target: T2, human CEACAM6 on 293T cells …; assay: cell-based or functional assay
[4] = target: T8, cynomolgus CEACAM5 on CHO-K1 cells (CHOK1-cyno CEACAM5 cells) (cynomolgus monkey); assay: flow cytometry on CHOK1-cyno CEACAM5 cells
T8 construct: whole, on cells; also called CHOK1-cynoCECAM5
Experimental: as §1

[5] = target: T3, human CEACAM8 protein; assay: ELISA, antigen coated on plate
Source text: (§2) Binding of recombinant anti-CEACAM5/6 dual-binding monoclonal antibodies against human and cynomolgus CEACAM5, and human CEACAM6 (Uniprot P40199), human CEACAM 1, 3 (NP_001806.2, Sino Biological 11933-H08H) and 8 (NP_001807.2, Acro Bio CE8-H5224) were detected by ELISA. Anti-CEACAM5/6 dual-antibodies were serially diluted in staining buffer (PBS containing 2% FBS). […] ELISA was used to test the binding between antibody containing supernatant or purified antibodies and the antigen. Briefly, the antigens were coated on a 96-well high binding plate overnight at 4° C. The plate was washed with PBST three times, incubated with blocking buffer (2% Bovine Serum Albumin) for one hour at 37° C., washed with PBST three times and incubated with antibody containing supernatant or purified antibodies at desired dilutions or concentrations for one hour at 37° C. A secondary antibody, anti-human Fc-HRP (Jackson Laboratory, 109-035-097) was used for detection of the targeted antibody. TMB and stopping solution were used for detection of HRP signal. The HRP signal was read on a SPECTRAMAX plate reader.

[6] = target: T4, human CEACAM6 protein; assay: ELISA, antigen coated on plate
Source text: as §2

[7] = target: T9, cyno CEACAM5 protein (cynomolgus monkey); assay: ELISA, antigen coated on plate
T9 construct: also called cynomolgus CEACAM5
Source text: as §2

[8] = target: T5, human CEACAM1 protein; assay: ELISA, antigen coated on plate
Source text: as §2

[9] = target: T6, human CEACAM3 protein; assay: ELISA, antigen coated on plate
Source text: as §2

[10] = target: T2, human CEACAM6 on 293T cells …; assay: flow cytometry on 293T-huCEACAM6 cells, Alexa Fluor 488 anti-human IgG, MFI
Experimental: as §1

[11] = target: T2, human CEACAM6 on 293T cells …; assay: flow cytometry on 293T-huCEACAM6 cells with against without 100 nM soluble CEACAM6
[12] = target: T7, human CEACAM5 protein; assay: ELISA, antigen coated on plate
Source text: as §2

binding result [1] | binding result [2] | Internalization of pHAb-dye-labelled antibody, MFI (37° C.-4° C.)/DAR [3] | EC50 [4] | binding result [5] | binding result [6] | EC50 [7] | binding result [8] | binding result [9] | EC50 (read off the curve) [10] | fold change of EC50 at the presence of 100 nM soluble protein [11] | EC50 [6] | binding result [12] | Binder
no binding | no binding | 1260 | 33.4 nM | no binding | no binding | 0.01 nM | no binding | no binding | – | – | – | – | PR303561 (Tusamitamab) (antibody, human IgG1, kappa, V domains shown, also called PR003561; SAR408377) VH: EVQLQESGPGLVKPGGSLSLSCAASGFVFSSYDMSWVRQTPERGLEWVAYISSGGGITYAPSTVKGRFTVSRDNAKNTLYLQMNSLTSEDTAVYYCAAHYFGSSGPFAYWGQGTLVTVSS VL: DIQMTQSPASLSASVGDRVTITCRASENIFSYLAWYQQKPGKSPKLLVYNTRTLAEGVPSRFSGSGSGTDFSLTISSLQPEDFATYYCQHHYGTPFTFGSGTKLEIKR
– | – | – | – | no binding | – | – | no binding | no binding | ~0.6 nM | 7.3 fold | 0.01 nM | no binding | PR303563 (Tinurilimab) (antibody, human IgG2, kappa, V domains shown, also called BAY-1834942) VH: QVTLRESGPALVKPTQTLTLTCTFSGFSLSTYGIGVGWIRQPPGKALEWLAHIWWNDNKYYSTSLKTRLTISKDTSKNQVVLTMTNMDPVDTATYYCARISLPYFDYWGQGTTLTVSS VL: DIQLTQSPSFLSASVGDRVTITCKASQNVGTAVAWYQQKPGKAPKLLIYSASNRYTGVPSRFSGSGSGTEFTLTISSLQPEDFATYYCQQYSSYPLTFGGGTKVEIKR
